The target in assay [1] is SARS-CoV-2-3Q-FL spike (without 2P) (SARS-CoV-2) (UniProt P0DTC2). Nature of the assay: cryo-EM structure.
The target in assay [2] is SARS-CoV-2-3Q-2P full-length spike (SARS-CoV-2) (UniProt P0DTC2). The assay can be described thus: negative stain electron microscopy.
For assay [3] the target is unchanged. The assay can be described thus: cryo-EM structure.
The target is the same in assay [4]. Nature of the assay: cryo-EM structure. The source holds these as a separate data set.

Values joined by “and” are separate entries in the source; they are usually repeats but may differ in a detail not shown here. Equal entries are not always repeated.

In the case of “SARS-CoV-2-3Q-FL spike (without 2P) (from UniProt P0DTC2 14-1273) (natural protein)”, in assay [1], the stoichiometry N is 3.

With “SARS-CoV-2-3Q-2P full-length spike (from UniProt P0DTC2 14-1273) (natural protein)”, the stoichiometry N in assay [2] was 3; in assay [3], 3 and 6; in assay [4], 9.

By stoichiometry N is commonly meant the number of molecules, sites or subunits per partner or assembly.
